From patent US20240336681A1 (LUDWIG MAXIMILIANS UNIVERSIT T M NCHEN, published 2024)
Residue numbers refer to the chain shown, from its start.

B1: 2D6-096 (scFv, V domains shown, not shown: small tags and cut ends)
VH: QVQLVESGGGLVQPGGSLRLSCAASGYTFTSYDINWVRQAPGKGLEWVGWIYPRDGSPKYNEKFKGRFTISADTSKNTAYLQMNSLRAEDTAVYYCARSVYYGTQFAYWGQGTLVTVSS
VL: DIQMTQSPSSLSASVGDRVTITCKSSQSLLNSRTRKNYLAWYQQKPGKAPKLLIYWASTRDSGVPSRFSGSGSGTDFTLTISSLQPEDFATYYCKQSFNLVTFGQGTKVEIK
notes: Standalone scFv; also called anti-CD47 scFv (2D6-096); VH3/VL3
B2: 2D6-059 (bispecific antibody, part only; not given: linkers and anti-TAA IgG1 chains, V domains shown, not shown: another chain or arm of the molecule; large carriers; small tags and cut ends)
VH: QVELVQSGPEVKKPGSSVKVSCKASGYTFPSYDINWVRQRPGQCLEWMGGIYPRSGSPKYNEKFKGRVTITADTSTSTAYMELHSLRSEDTAVYYCARSVYYGTQFAYWGQGTLVTVSA
VL: DIVLTQSPSSLAVSLGERVTMSCKSSQSLLNSRTRKNYLAWYQQKPGQPPKLLIYWASTRDSGVPDRFSGSGSGTDFTLTISSLQAEDVAVYYCQQSFNLVTFGCGTKLEIK
B3: 2D6-056 (bispecific antibody, part only; not given: linkers and anti-TAA IgG1 chains, V domains shown, not shown: another chain or arm of the molecule; large carriers; small tags and cut ends)
VH: B2 VH with C44G
VL: B2 VL with C105G
B4: MSL-745 (bispecific antibody, part only; not given: anti-mesothelin IgG1 chains and linkers, V domains shown, not shown: another chain or arm of the molecule; large carriers; small tags and cut ends)
VH: B2 VH
VL: B2 VL
B5: 2D6-022 (bispecific antibody, part only; not given: linkers and anti-TAA IgG1 chains, V domains shown, not shown: another chain or arm of the molecule; large carriers; small tags and cut ends)
VH: B2 VH with C44G, G50W, S55D
VL: B2 VL with Q95K, C105G
B6: 2D6-031 (bispecific antibody, part only; not given: linkers and anti-TAA IgG1 chains, V domains shown, not shown: another chain or arm of the molecule; large carriers; small tags and cut ends)
VH: B1 VH with T30P
VL: B1 VL
B7: 2D6-032 (bispecific antibody, part only; not given: linkers and anti-TAA IgG1 chains, V domains shown, not shown: another chain or arm of the molecule; large carriers; small tags and cut ends)
VH: B1 VH with T30P
VL: B1 VL with Q3V, S66D
B8: 2D6-076 (antibody, IgG1, V domains shown)
VH: B2 VH with C44G, G50W, S55D
VL: B2 VL with C105G
notes: hIgG1 (humanized IgG1); only the variable domains are tied to the construct; also called VH2/VL2.7
B9: 2D6-005 (antibody, IgG4, V domains shown)
VH: B2 VH with C44G, G50W, S55D
VL: B1 VL with Q3V, M4L, I21M, T22S, F89I, Q105G, V109L
notes: hIgG4 (humanized IgG4), human kappa constant light chain from vector; only the variable domains are tied to the construct; also called VH2/VL1
B10: 2D6-066 (antibody, IgG1, V domains shown)
VH: B2 VH with C44G, G50W, Y52I, S55D
VL: B2 VL with L4M, Q95K, C105G
notes: hIgG1 (humanized IgG1); only the variable domains are tied to the construct; also called VH2.4/VL2
B11: 2D6-067 (antibody, IgG1, V domains shown)
VH: B2 VH with C44G, G50W, S55F
VL: B2 VL with L4M, Q95K, C105G
notes: hIgG1 (humanized IgG1); only the variable domains are tied to the construct; also called VH2.5/VL2
B12: 2D6-015 (antibody, IgG4, V domains shown)
VH: B1 VH with T30P
VL: B1 VL
notes: hIgG4 (humanized IgG4); only the variable domains are tied to the construct; also called VH4/VL3
B13: 2D6-016 (antibody, IgG4, V domains shown)
VH: B1 VH with T30P
VL: B1 VL with Q3V, S66D
notes: hIgG4 (humanized IgG4); only the variable domains are tied to the construct; also called VH4/VL4

Biological target: T1, recombinant C-terminally His-tagged human CD47 (extracellular domain) (human, UniProt Q08722 19-141)
T1 construct: also called recombinantly expressed human CD47 extracellular domain
Experiment: SPR, Biacore X100

T1 sequence (Q08722 19-141): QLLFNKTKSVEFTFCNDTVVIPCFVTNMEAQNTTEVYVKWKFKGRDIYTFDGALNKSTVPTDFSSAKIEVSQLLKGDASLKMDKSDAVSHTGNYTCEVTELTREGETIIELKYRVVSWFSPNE

Row | koff | kon | Binder
1 | 0.00163 s⁻¹ | 81500 M⁻¹ s⁻¹ | B1

Biological target: recombinant C-terminally His-tagged human CD47 (extracellular domain) (human) (UniProt Q08722)
Experiment: SPR (affinity to CD47 as measured by SPR)

Chain of recombinant C-terminally His-tagged human CD47 (extracellular domain) (human) (Q08722 19-141): as above

Row | Kd | Binder
2 | 568 nM | B2
3 | 659 nM | B3

Biological target: recombinant C-terminally His-tagged human CD47 (extracellular domain) (human) (UniProt Q08722)
Experiment: SPR, Biacore X100; analyte hCD47 31.25 to 2000 nM

Row | koff | kon | Binder
4 | 0.396 s⁻¹ | 685000 M⁻¹ s⁻¹ | B4

Biological target: T1, recombinant C-terminally His-tagged …
Experiment: SPR, Biacore X100; format for the scFv not described

Row | Kd | Binder
5 | 20 nM | B1

Biological target: recombinant C-terminally His-tagged human CD47 (extracellular domain) (human) (UniProt Q08722)
Experiment: SPR, Biacore X100; construct captured by anti-human Fc on CM5 chip, human CD47 extracellular domain as analyte, 1:1 fit

Row | Kd | Binder
6 | 578 nM | B4
7 | 106 nM | B5
8 | 138 nM | B6
9 | 141 nM | B7

Biological target: recombinant C-terminally His-tagged human CD47 (extracellular domain) (human) (UniProt Q08722)
Experiment: SPR, Biacore X100; construct captured by anti-human Fc on a CM5 chip, CD47 extracellular domain as analyte, 1:1 fit

Row | koff | kon | Binder
10 | 0.07 s⁻¹ | 660000 M⁻¹ s⁻¹ | B5
11 | 0.14 s⁻¹ | 990000 M⁻¹ s⁻¹ | B6
12 | 0.13 s⁻¹ | 960000 M⁻¹ s⁻¹ | B7

Biological target: T1, recombinant C-terminally His-tagged …
Experiment: SPR, Biacore X100; construct captured by anti-human Fc on CM5 chip, human CD47 extracellular domain as analyte, 1:1 fit
Method: (§1) Surface Plasmon Resonance (SPR) was used in addition to analyse binding of the different protein constructs to recombinantly expressed CD47 and to determine their affinity. Association (Kₒₙ) and dissociation (Koff) rate constants were determined by SPR using a Biacore™ X-100 (Cytiva). Using the Human antibody capture kit an anti-human Fc antibody was immobilized on a CM5 sensor chip in a covalent manner using the Amine coupling Kit according to manufacturer's instructions. Humanized anti-hCD47 IgGs were injected as ligand to reach a surface coverage of approximately 100 RU-400 RU. Recombinantly expressed human CD47 extracellular domain was used as analyte and injected in increasing concentrations (e. g. from 3.9 to 1000 nM), with standard association time of 120 s and dissociation time of 600 s. Experiments were performed in multi-cycle kinetics runs, with regeneration between sample injection with the respective regeneration buffer (3M MgCl2 for the human antibody capture kit). All reagents were diluted in HBS-EP+ buffer (Cytiva). Data are fit to a simple 1:1 interaction model using the global data analysis option available within BiaEvaluation 2.0.1 software. The dissociation constant (KD) was used as a value for the affinity and was calculated from the ratio between Koff and Kₒₙ.

Row | Kd | Binder
13 | 974 nM | B8
14 | 176 nM | B9
15 | 1320 nM | B10
16 | 219 nM | B11
17 | 311 nM | B12
18 | 203 nM | B13

Biological target: T2, human CD47 on cells (human, UniProt Q08722 19-323)
T2 construct: also called CD47 on Molm-13, OVCAR-3, Suit-2 MSLN, HL-60 cells, red blood cells and CD47-transfected CHO cells
Experiment: flow cytometry on CD47-positive Expi293 cells, 50 nM antibody; MFI of the antibody over MFI of the isotype control
Method: Initially, binding of anti-hCD47 IgG4, anti-hCD47 IgG1 antibodies and Fab domains were measured on CD47-expressing cells by flow cytometry. Cells were stained with 50 nM of antibody followed by staining with a secondary fluorescently labelled anti-human IgG Fc or light-chain antibody, and analyzed by flow cytometry. Binding was measured by calculating the median fluorescence intensity (MFI) ratio, by dividing MFI of the antibody by the MFI of the isotype control.

T2 sequence (Q08722 19-323): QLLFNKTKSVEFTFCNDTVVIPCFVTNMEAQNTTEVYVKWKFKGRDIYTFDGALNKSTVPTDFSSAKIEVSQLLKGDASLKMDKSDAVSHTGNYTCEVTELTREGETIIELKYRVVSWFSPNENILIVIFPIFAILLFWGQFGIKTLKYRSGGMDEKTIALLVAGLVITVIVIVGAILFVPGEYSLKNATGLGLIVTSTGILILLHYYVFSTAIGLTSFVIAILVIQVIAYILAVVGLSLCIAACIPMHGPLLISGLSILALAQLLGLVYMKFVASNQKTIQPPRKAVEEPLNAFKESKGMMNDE

Row | MFI ratio | Binder
19 | 4.95 | B9
20 | 4.14 | B12
21 | 3.42 | B13

Biological target: T1, recombinant C-terminally His-tagged …
Experiment: SPR, Biacore X100; antibody captured by anti-human Fc on a CM5 chip, CD47 extracellular domain as analyte, 1:1 fit
Method: as §1

Row | Kd | koff | kon | Binder
22 | 970 nM | 0.48 s⁻¹ | 490000 M⁻¹ s⁻¹ | B8
23 | 170 nM | 0.13 s⁻¹ | 760000 M⁻¹ s⁻¹ | B9
24 | 1310 nM | 0.32 s⁻¹ | 250000 M⁻¹ s⁻¹ | B10
25 | 219 nM | 0.16 s⁻¹ | 720000 M⁻¹ s⁻¹ | B11
26 | 310 nM | 0.22 s⁻¹ | 710000 M⁻¹ s⁻¹ | B12
27 | 203 nM | 0.36 s⁻¹ | 1.8e+06 M⁻¹ s⁻¹ | B13
